From patent US20190150137A1 come the findings set out here.

Test [1] deals with ClfAD327C/K541C (ClfA(229-545)D327C/K541C, disulfide-stabilized closed conformation) (Staphylococcus aureus strain Newman) (UniProt Q2G015). The test can be described thus: ITC, peptide titrated into ClfAD327C/K541C; panel assigned by the legend paragraph 25 (bovine Fg γ peptide has the lower affinity). On the technique in general: In ITC the heat of successive injections is recorded.

The target of test [2] is GST-Fg γ^1-17 (GST fusion protein containing the native human Fg γ 395-411 sequence) (human). Put plainly: ELISA-type assay, ligand coated, apparent Kd. (ELISA stands for enzyme-linked immunosorbent assay.)
Test [3] has as its target GST-Fg g^1-17D16A (GST fusion of the Fg γ 395-411 sequence with D16A) (human). The test can be described thus: solid-phase binding assay, wells coated with GST-γ1-17 D16A, anti-His detection, A405.

“bovine Fg γ peptide (peptide representing the bovine Fg γ chain sequence) (from UniProt P12799 420-436)” had a Kd in test [1] of 20.9 µM.
Regarding “ClfAD327C/K541C (ClfA(229-545)D327C/K541C, disulfide-stabilized closed conformation) (from UniProt Q2G015 229-545)”, the Kd in test [2] stood at 20 nM.
As to “ClfA229-545 (recombinant His-tagged N2N3 segment of Staphylococcus aureus clumping factor A) (from UniProt Q2G015 229-545)”, in test [3], the half-maximal effective concentration (EC50 (read off the curve)) (usually the midpoint of the concentration-response curve) stood at 0.2 µM. The Kd in test [2] is 222 nM.
